Laboratory results: PMC6141180

Target: p38α (UniProt P47811)
Assay: ITC
Settings: reference: native TAB1 (1-438); sites S423

binding against the reference: same
Substance: TAB1 1-438 (from UniProt Q8CF89) pS423TAB1 (1-438), genetically encoded phosphoserine
